Substrate: OC[C@H]1O[C@@H](O[C@H]2[C@H](O)[C@@H](O)C(O)O[C@@H]2CO)[C@H](O)[C@@H](O)[C@H]1O
Assay: kinetics of LMG P-19143 β-galactosidase with lactose as substrate (galactose dehydrogenase assay)
Type: biochemical, Pseudoalteromonas haloplanktis LMG P-19143
Details: other: lactose (1 mM to 50 mM) as substrate, 25° C., pH 7.3
Description: The definition of enzyme activity units can be defined according to the substrate used with lactose as a substrate, the unit of activity is defined as the amount of enzyme which releases one micro-mole glucose in one minute under standard reaction conditions (temperature, pH). Another commonly used substrate is ortho-nitrophenyl-β-D galactopyranoside (ONPG) and in this case, the unit of activity is defined as the amount of enzyme which hydrolyses one micro-mole of ONPG in one minute under standard reaction conditions.
Km was also determined at 25° C. with lactose (1 mM to 50 mM) as a substrate.

B1: Pseudoalteromonas haloplanktis LMG P-19143 cold-active β-galactosidase (lac Z), native, SEQ ID NO: 2 (Pseudoalteromonas haloplanktis) (protein)
chain: MTSLQHIINRRDWENPITVQVNQVKAHSPLNGFKTIEDARENTQSQKKSLNGQWDFKLFDKPEAVDESLLYEKISKELSGDWQSITVPSNWQLHGFDKPIYCNVKYPFAVNPPFVPSDNPTGCYRTEFTITPEQLTQRNHIIFEGVNSAFHLWCNGQWVGYSQDSRLPSEFDLSELLVVGTNRIAVMVIRWSDGSYLEDQDMWWLSGIFRDVNLLTKPQSQIRDVFITPDLDACYRDATLHIKTAINAPNNYQVAVQIFDGKTSLCEPKIQSTNNKRVDEKGGWSDVVFQTIAIRSPKKWTAETPYLYRCVVSLLDEQGNTVDVEAYNIGFRKVEMLNGQLCVNGKPLLIRGVNRHEHHPENGHAVSTADMIEDIKLMKQNNFNAVRTAHYPNHPLFYELCDELGLYVVDEANIETHGMFPMGRLASDPLWAGAFMSRYTQMVERDKNHASIIIWSLGNECGHGANHDAMYGWSKSFDPSRPVQYEGGGANTTATDIICPMYSRVDTDIKDDAVPKYSIKKWLSLPGETRPLILCEYAHAMGNSLGSFDDYWQAFREYPRLQGGFIWDWVDQGLSKIDENGKHYWAYGGDFGDELNDRQFCINGLLFPDRTPHPSLFEAKYSQQHLQFTLREQNQNQNQNQYSIDVFSDYVFRHTDNEKLVWQLIQNGVCVEQGEMALNIAPQSTHTLTIKTKTAFEHGAQYYLNLDVALINDSHFANANHVMDSEQFKLINSNNLNSKSFASATEKSVISVNETDSHLSIENNTFKLVFNQQSGLIEQWLQDDTQVISSPLVDNFYRAPLDNDIGVSEVDNLDPNAWEARWSRAGIGQWQRTCSSINAVQSSVDVRITCVFNYEFNGVLQAQTQWLYTLNNTGTISLNVDVNLNDTLPPMPRIGLSTTINKQSDTKVNWLGLGPFENYPDRKSAARFGYYSLSLNELYTPYIFPTDNGLRSDCQLLSINNLIVTGAFLFAASEYSQNMLTQAKHTNELIADDCIHVHIDHQHMGVGGDDSWSPSTHKEYLLEQKNYNYSLTLTGGITT
notes: ORF of 1038 residues
Question: For B1, which Km is on record?
Answer: The Km was 2400 µM.

Source: patent US6727084B1, “Cold-active beta-galactosidase, the process for its preparation and the use thereof” (Universite de Liege, priority 1999, dated 2004)
